Assay results as given in patent publication US20250179160A1 (OMEROS, published 2025).

Experiments:
[1] = biological target: T1, recombinant human mature Factor D (human, UniProt P00746 26-253); test: ELISA: antibody titrated 3-fold from 3 ug/ml on plate coated with 1 ug/ml recombinant human mature Factor D; HRP anti-mouse, rat or human secondary; OD450
T1 construct: also called mature CFD; hCFD

[2] = biological target: T2, recombinant human Pro-Factor D (human, UniProt P00746 20-253); test: capture ELISA: recombinant Factor D captured by plate-bound goat polyclonal AF1824; hybridoma supernatant diluted two-fold; OD450
T2 construct: also used for the endogenous pro-Factor D detected in 3MC patient serum; also called pro CFD; hPro-CFD
Protocol: Hybridoma supernatants were first screened for binding to immobilized recombinant human mature Factor D-His. […] ELISA plates were coated with polyclonal anti-human factor D antibody AF1824 (R&D Systems). Hybridoma supernatants were diluted two-fold in PBS, 0.05% Tween 20 (PBST). Supernatant from NS-1 myeloma cell line (NS-1 sup) was included as a matrix control to determine the level of assay background.

[3] = biological target: T1, recombinant human mature Factor D; test: BLI (Octet ForteBio), 20 nM human IgG4 antibody on anti-human sensors, antigen 111 nM
Protocol: Affinities of candidate antibodies to human mature-Factor-D versus human pro-Factor D were determined as follows.
Association and dissociation constants were determined by Octet Fortebio.

[4] = biological target: T2, recombinant human Pro-Factor D; test: sandwich ELISA: Factor D titrated (ug/ml Df) on plate-bound goat polyclonal AF1824; purified recombinant human IgG4 antibody as detection antibody; OD450
Description: An HRP-tagged anti-mouse secondary antibody followed by TMB substrate was used to develop the assay.

[5] = biological target: T1, recombinant human mature Factor D; test: capture ELISA: recombinant Factor D captured by plate-bound goat polyclonal AF1824; hybridoma supernatant diluted two-fold; HRP goat anti-mouse IgG Fc; OD450
Protocol: The specificity of anti-human pro-CFD hybridomas were further analyzed as follows. […] ELISA plates were coated with polyclonal anti-human factor D antibody AF1824 (R&D Systems). Hybridoma supernatants were diluted two-fold in PBS, 0.05% Tween 20 (PBST). […] Hybridoma supernatants and control samples were allowed to bind to captured pro or mature Factor D for one hour at room temperature. After washing three times with PBST, 100 μL/well of HRP-goat anti-mouse IgG Fc gamma secondary antibody (Jackson ImmunoResearch) diluted in PBST was added and incubated for 1 hour at room temperature. After washing three times with PBST, TMB substrate (ThermoFisher), 100 μL/well, was added. After 4 minutes the reaction was stopped with 50 μL/well of 1N H2SO₄, then read at 450 nm on a Biotek™ ELISA plate reader.

Binder | Kd [3] [nM] | binding result [4] | binding result [5] | other results
1F9, purified recombinant, human IgG4 (antibody, V domains shown, Mouse variable regions on human IgG4 (S228P) and human kappa constant regions) VH: EVKLEESGGGLVQPGGSMKLSCVASGFTFGSYWMSWVRQSPEKGLEWVAEIRLKSDNYAAHYAESVKGKFTISRDDSKSRLYLQMNSLRGEDTGIYYCTNAWFASWGQGTLVTVSA VL: DIVMSQSPSSLTVSVGEKVTMSCMSSQSLLYSKDQKNYLAWYQQKPGQSPTLLIYWASTRESGVPDRFTGSGSGTDFTLTISSVKAEDLAVYYCLQYYTYPYTFGGGTKLEIKR |  |  |  | binding result [1]: no binding (tested: 3 ug/ml)
6G6, hybridoma supernatant (antibody, V domains shown, Mouse hybridoma antibody) VH: QITLKESGPGILQSSQTLSLTCSFSGISLTTSGMGVSWIRQPSGKGLEWLAHIYWDDEKHYHPSLKSRLTISKDASRNQVFFRILSVDTADTATYYCALRYYGYRSFMDYWGQGTSVTVSS VL: DVLMTQSPLSLPVSLGDQASIFCRSNQSIVHSNGNTYFEWYLQKPGQSPKLLIYKVSNRFSGVPDRFSGSGSGTDFTLRISRVEAEDLGVYYCFQGSHVPPTFGGGTKLEIKR |  |  |  | binding result [2]: no binding
6G6, purified recombinant, human IgG4 (antibody, V domains shown, Mouse variable regions on human IgG4 (S228P) and human kappa constant regions) VH: QITLKESGPGILQSSQTLSLTCSFSGISLTTSGMGVSWIRQPSGKGLEWLAHIYWDDEKHYHPSLKSRLTISKDASRNQVFFRILSVDTADTATYYCALRYYGYRSFMDYWGQGTSVTVSS VL: DVLMTQSPLSLPVSLGDQASIFCRSNQSIVHSNGNTYFEWYLQKPGQSPKLLIYKVSNRFSGVPDRFSGSGSGTDFTLRISRVEAEDLGVYYCFQGSHVPPTFGGGTKLEIKR | 14.3 | no binding |  | 
14A11, purified recombinant, human IgG4 (antibody, Mouse variable regions on human IgG4 (S228P) and human kappa constant regions) heavy: not shown light: DVLMTQSPLSLPVSLGDQASIFCRSNQSIVHSNGNTYFEWYLQKPGQSPKLLIYKVSNRFSGVPDRFSGSGSGTDFTLRISRVEAEDLGIYYCFQGSHVPPTFGGGTKLEIKRTVAAPSVFIFPPSDEQLKSGTASVVCLLNNFYPREAKVQWKVDNALQSGNSQESVTEQDSKDSTYSLSSTLTLSKADYEKHKVYACEVTHQGLSSPVTKSFNRGEC | 9.77 | no binding |  | 
49G3, purified recombinant, human IgG4 (antibody, V domains shown, Mouse variable regions on human IgG4 (S228P) and human kappa constant regions) VH: QVTLKESGPGILQSSQTLSLTCSFSGISLSSSGMGVSWIRQPSGKGLEWLAHIYWDDEKHYNPSLKSRLTISKDASRNQIFLKIISVDTADTATYYCALRYYGYNYVMHYWGQGTSVTVSS VL: DVLMTQTPLSLPVSLGDQASISCRSSQSILHSNGNTYFEWYLQKPGQSPKLLIYKVSNRFSGVPDRFSGSGSGTDFTLKISRVEAEDLGVYYCFQGSHVPPTFGGGTKLEIKR | 2.3 | no binding |  | 
10G1, purified recombinant, human IgG4 (antibody, V domains shown, Mouse variable regions on human IgG4 (S228P) and human kappa constant regions) VH: QVTLKESGPGILQSSQTLSLTCSFSGVSLSSSGMGVSWIRQPSGKGLEWLAHIYWDDEKHYNPSLKSRLTISKGASRNQVFLKIISVDTADTATYYCALRYYGYNSIMHYWGQGASVTVSS VL: DVLMTQTPLSLPVSLGDQASISCRSSESIVHSNGNTYLEWYLQKPGQSPKLLIYKVYNRFSGVPDRFSGSGSGTDFTLKISRVEAEDLGVYYCFQGSHVPPTFGGGTKLEIKR | 0.731 | no binding |  | 
58F5, purified recombinant, human IgG4 (antibody, V domains shown, Mouse variable regions on human IgG4 (S228P) and human kappa constant regions) VH: QVTLKESGPGILQSSQTLSLTCSFSGISLNTSIMGVSWIRQPSGKGLEWLAHIYWDDEKHYNPSLKSRLTISKDASRNQVFLKIISVDTADTATYYCALRYYGYNYVMHYWGQGTSVTVSS VL: DVLMTQTPLSLPVSLGDQASISCRSSQSIVHSNGNTYLEWYLQKPGQSPKLLIYKVSNRFSGVPDRFSGSGSGTDFTLKISRVEADDLGVYYCFQGSHVPPTFGGGTKLEIKR | < 0.001 | no binding |  | 
27B3, purified recombinant, human IgG4 (antibody, V domains shown, Mouse variable regions on human IgG4 (S228P) and human kappa constant regions) VH: QVTLKESGPGILQSSQTLSLTCSFSGISLNISGMGVSWIRQPSGKGLEWLAHIYWDDEKHYNPSLKRRLTISKDASRNQVFFRISSVDSADTATYYCALRYYGYGSIMDYWGHGTSVTVSS VL: DVLMTQTPLSLPVSLGDQASISCRSSQSIVHSNGNTYFEWYLQKPGQSPKLLIYKVSNRFSGVPDRFSGSGSGTDFTLKISRVEAEDLGVYYCFQGSHVPPTFGGGTKLEIKR | 24.1 | no binding |  | 
18F5, hybridoma supernatant (antibody, V domains shown, Mouse hybridoma antibody) VH: EVKLEESGGGLVQPGGSMKLSCVASGFTFGNYWMSWVRQSPEKGLEWVAEIRLKSDNYATHYAESVKGKFTISRDDSKSRLYLQMNSLRGEDTGLYYCTNAWFASWGQGTLVTVSA VL: DIVMSQSPSSLAVSVGEKVTMSCMSSQSLLYSKDQKNYLAWYQQKPGQSPKLLIYWASTRESGVPDRFTGSGSGTDFTLTISSVKAEDLAVYYCLQYYTYPYTFGGGTKLEIKR |  |  | no binding | 
1F9, hybridoma supernatant (antibody, V domains shown, Mouse hybridoma antibody) VH: EVKLEESGGGLVQPGGSMKLSCVASGFTFGSYWMSWVRQSPEKGLEWVAEIRLKSDNYAAHYAESVKGKFTISRDDSKSRLYLQMNSLRGEDTGIYYCTNAWFASWGQGTLVTVSA VL: DIVMSQSPSSLTVSVGEKVTMSCMSSQSLLYSKDQKNYLAWYQQKPGQSPTLLIYWASTRESGVPDRFTGSGSGTDFTLTISSVKAEDLAVYYCLQYYTYPYTFGGGTKLEIKR |  |  | no binding | 
2A4, hybridoma supernatant (antibody, V domains shown, Mouse hybridoma antibody) VH: EVKLEESGGGLVQPGGSMKLSCVASGFTFSTYWMSWVRQSPEKGLEWVAEIRLKSDNYATHYTESVKGKFTISRDDSKSRLYLQMNSLRVEDTGIYYCTNAWFAYWGQGTLVTVSA VL: DIVMSQSPSSLAVSVGEKFTMSCKSSQSLLYSRDQKNYLAWYQQQPGQSPKLLIYWASTRESGVPDRFTGSGSGTDFTLTISSVKTEDLAVYYCLQYYSYPYTFGGGTKLEIKR |  |  | no binding | 
13A10, hybridoma supernatant (antibody, V domains shown, Mouse hybridoma antibody) VH: DVQLQESGPGLVKPSQSLSLTCTVTGYSITSDYAWNWIRQFPGNKLEWMGYISYIGGIGYNPSLKSRISITRDTSKNQFFLHLNSVTTGDTATYYCARNGAMDFWGQGISVTVSS VL: DIVLTQSPASLAVSLGQRATISCKASQSVDYDGDSYMNWYQQKPGQPPKLLIYDASNLESGIPARFSGSGSGTDFTLNIHPVEEEDAATYYCQQSNEAPWTFGGGTKLEIKR |  |  | no binding | 
21H1, hybridoma supernatant (antibody, V domains shown, Mouse hybridoma antibody) VH: DVQLQESGPGLVKPSQSLSLTCTVTGYSITSDYAWNWIRQFPGNKLEWMGYISYSGSTGYSPSLKSRISITRDTSKNQFFLHLNSVTTGDTATYYCARNGAMDYWGQGISVTVSS VL: DIVLTQSPASLAVSLGQRATISCKASQSVDYDGDSYMNWYQQKPGQPPKLLIYDASTLESGIPARFSGSGSGTDFTLNIHPVEEEDAATYYCQQNYEAPWTFGGGTKLEIKR |  |  | no binding | 
20A1, hybridoma supernatant (antibody, V domains shown, Mouse hybridoma antibody) VH: EVKLEESGGGLVQPGGSMKLSCIASGFTFSTYWMSWVRQSPEKGLEWVAEIRLKSENYATYYAESVKGKFIISRDDSKSRLYLQMNSLRAEDTGIYYCTNAWFANWGQGTLVTVSA VL: DIVMSQSPSSLVVSVGEKVTMSCKSSQNLLYSRDQKNYLAWYQQKPGQSPNLLIYWASTRESGVPDRFTGSGSGTDFSLTISSVKAEDLAVYYCLQYYSYPYTFGGGTKLEMKR |  |  | no binding | 
49G3, hybridoma supernatant (antibody, V domains shown, Mouse hybridoma antibody) VH: QVTLKESGPGILQSSQTLSLTCSFSGISLSSSGMGVSWIRQPSGKGLEWLAHIYWDDEKHYNPSLKSRLTISKDASRNQIFLKIISVDTADTATYYCALRYYGYNYVMHYWGQGTSVTVSS VL: DVLMTQTPLSLPVSLGDQASISCRSSQSILHSNGNTYFEWYLQKPGQSPKLLIYKVSNRFSGVPDRFSGSGSGTDFTLKISRVEAEDLGVYYCFQGSHVPPTFGGGTKLEIKR |  |  |  | binding result [2]: no binding
10G1, hybridoma supernatant (antibody, V domains shown, Mouse hybridoma antibody) VH: QVTLKESGPGILQSSQTLSLTCSFSGVSLSSSGMGVSWIRQPSGKGLEWLAHIYWDDEKHYNPSLKSRLTISKGASRNQVFLKIISVDTADTATYYCALRYYGYNSIMHYWGQGASVTVSS VL: DVLMTQTPLSLPVSLGDQASISCRSSESIVHSNGNTYLEWYLQKPGQSPKLLIYKVYNRFSGVPDRFSGSGSGTDFTLKISRVEAEDLGVYYCFQGSHVPPTFGGGTKLEIKR |  |  |  | binding result [2]: no binding
58F5, hybridoma supernatant (antibody, V domains shown, Mouse hybridoma antibody; also called 58GF5) VH: QVTLKESGPGILQSSQTLSLTCSFSGISLNTSIMGVSWIRQPSGKGLEWLAHIYWDDEKHYNPSLKSRLTISKDASRNQVFLKIISVDTADTATYYCALRYYGYNYVMHYWGQGTSVTVSS VL: DVLMTQTPLSLPVSLGDQASISCRSSQSIVHSNGNTYLEWYLQKPGQSPKLLIYKVSNRFSGVPDRFSGSGSGTDFTLKISRVEADDLGVYYCFQGSHVPPTFGGGTKLEIKR |  |  |  | binding result [2]: no binding
20A1, purified recombinant, human IgG4 (antibody, V domains shown, Mouse variable regions on human IgG4 (S228P) and human kappa constant regions) VH: EVKLEESGGGLVQPGGSMKLSCIASGFTFSTYWMSWVRQSPEKGLEWVAEIRLKSENYATYYAESVKGKFIISRDDSKSRLYLQMNSLRAEDTGIYYCTNAWFANWGQGTLVTVSA VL: DIVMSQSPSSLVVSVGEKVTMSCKSSQNLLYSRDQKNYLAWYQQKPGQSPNLLIYWASTRESGVPDRFTGSGSGTDFSLTISSVKAEDLAVYYCLQYYSYPYTFGGGTKLEMKR |  |  |  | binding result [1]: no binding (tested: 3 ug/ml)
27B3, hybridoma supernatant (antibody, V domains shown, Mouse hybridoma antibody) VH: QVTLKESGPGILQSSQTLSLTCSFSGISLNISGMGVSWIRQPSGKGLEWLAHIYWDDEKHYNPSLKRRLTISKDASRNQVFFRISSVDSADTATYYCALRYYGYGSIMDYWGHGTSVTVSS VL: DVLMTQTPLSLPVSLGDQASISCRSSQSIVHSNGNTYFEWYLQKPGQSPKLLIYKVSNRFSGVPDRFSGSGSGTDFTLKISRVEAEDLGVYYCFQGSHVPPTFGGGTKLEIKR |  |  |  | binding result [2]: no binding
